Reference: patent US20080287363A1

Legend:
CCL5/RANTES [1] = target: CCL5/RANTES (UniProt P13501); test: equilibrium competition receptor binding assay (SPA): inhibition of 0.1 nM 125I-RANTES binding to CHO/CCR5 membranes
CCL5/RANTES [2] = target: CCL5/RANTES (UniProt P13501); test: equilibrium competition receptor binding assay (SPA): inhibition of 0.1 nM 125I-RANTES binding to CHO/CCR1 membranes

Chain of CCL5/RANTES (P13501 24-91 limits assumed): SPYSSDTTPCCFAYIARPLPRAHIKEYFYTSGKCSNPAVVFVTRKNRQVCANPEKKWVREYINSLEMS

recombinant Δ6 evasin-4 (truncated, N-terminally 6His tagged evasin-4, amino acids 24-127), purified
IC50 (CCL5/RANTES [1]): 3 nM
IC50 (CCL5/RANTES [2]): 7 nM
